Data taken from patent US20240067734A1.

Molecular target: di muNKG2D ECD Fc avi (murine)
Experiment: ELISA; biotinylated antigen on streptavidin plate

di muNKG2D ECD Fc avi (murine), sequence (chain, as listed by the source limits assumed): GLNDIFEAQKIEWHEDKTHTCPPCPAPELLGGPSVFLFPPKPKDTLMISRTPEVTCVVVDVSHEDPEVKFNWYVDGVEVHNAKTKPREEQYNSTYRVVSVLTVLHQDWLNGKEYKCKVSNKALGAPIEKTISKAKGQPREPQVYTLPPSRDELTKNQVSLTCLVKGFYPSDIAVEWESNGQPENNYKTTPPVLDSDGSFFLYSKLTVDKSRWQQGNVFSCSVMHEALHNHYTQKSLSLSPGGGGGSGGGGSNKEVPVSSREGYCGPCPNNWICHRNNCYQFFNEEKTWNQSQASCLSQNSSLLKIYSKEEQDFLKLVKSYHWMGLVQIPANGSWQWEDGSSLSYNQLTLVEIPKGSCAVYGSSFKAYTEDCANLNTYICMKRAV

- OD max: 0.2 OD
B1: anti-NKG2D antibody clone 001 (antibody, V domains shown)
VH: QQLEQSGGGLVTPGGSLKLCCIGSGFDFNTYWMTWVRQAPGKGLEWIGCIHGGSSGSTYYASWVNGRFTLSRDIDQSTGCLQVNSLTAADTAMYYCARPGYRSWSKTFDLWGQGTMVTVSS
VL: DIQMTQSPSSLSASVGDRVTITCRASQDISESLNWYQQKPGKAPKLLIYAASSLQSGVPSRFSGSGSGTDYTLTISSLQPEDFATYYCQQANSFPLTFGGGTKVEIK
